In this assay the target is Aβ_(1-42). The assay is described as follows: thioflavin T fluorescence aggregation kinetics.

Data on one substance can be found in PMC8254419.

The substance Aβ_(1-42) (peptide) had a k+k2 (product of the rate constants of elongation and secondary nucleation) of 1e+11 M^−3s^−2.
